The target in the assay is Human plasminogen (PLG) protein (human) (UniProt P00747). Kind of assay: SPR; BIAcore system; PLG and EV-A71 6356 viral particles; the methods tell one set-up (PLG coated, virus diluted) for EnSpire or BIAcore.

“Enterovirus A71 (EV-A71) viral particles, strain 6356 (human strain, C2 genotype) (complex)” yielded a Kd of 1.96 nM, a koff of 5.63e-05 s⁻¹ and a kon of 28800 M⁻¹ s⁻¹.
